Here are results for two molecules from PMC7913688, “Human Rev1 relies on insert-2 to promote selective binding and accurate replication of stabilized G-quadruplex motifs”.

The target of series [1] is T1, hRev1 330-833 L358A (human, UniProt Q9UBZ9 330-833, L358A).
T1 sequence: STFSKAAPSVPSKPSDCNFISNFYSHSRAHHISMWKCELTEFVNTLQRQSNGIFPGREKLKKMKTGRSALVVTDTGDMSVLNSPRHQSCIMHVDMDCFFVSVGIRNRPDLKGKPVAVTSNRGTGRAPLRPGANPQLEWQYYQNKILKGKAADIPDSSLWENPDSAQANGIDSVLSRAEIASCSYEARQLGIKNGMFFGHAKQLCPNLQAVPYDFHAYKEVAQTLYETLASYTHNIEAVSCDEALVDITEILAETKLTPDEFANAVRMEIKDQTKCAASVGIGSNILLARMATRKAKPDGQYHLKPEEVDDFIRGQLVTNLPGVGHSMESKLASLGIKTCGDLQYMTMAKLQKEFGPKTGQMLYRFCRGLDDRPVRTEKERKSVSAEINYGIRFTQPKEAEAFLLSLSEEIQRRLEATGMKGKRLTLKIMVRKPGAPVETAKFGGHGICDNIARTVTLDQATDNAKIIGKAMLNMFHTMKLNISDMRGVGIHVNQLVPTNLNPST
The series can be described thus: fluorescence polarization; 100 mM KCl?; Fluorescence polarization: 1 nM FAM-DNA, 100 mM KCl or LiCl; DNA annealed in 50 mM HEPES pH 7.5; full buffer as in cited ref 17, temperature not stated. Footprinting: 50 mM HEPES pH 7.5, 100 mM KCl, 10 uM protein, 30 uM ssDNA, room temperature. Particulars: protein: recombinant, label: 5'-FAM.

The target of series [2] is T2, hRev1 330-833 Y470A (human, UniProt Q9UBZ9 330-833, Y470A).
T2 sequence: T1 sequence with A29L, Y141A
Described as above. The settings on record: protein: recombinant, label: 5'-FAM.

Series [3] deals with T3, hRev1 330-833 E466A (human, UniProt Q9UBZ9 330-833, E466A).
T3 sequence: T1 sequence with A29L, E137A
The series is described as above. The settings on record: protein: recombinant, label: 5'-FAM.

The target in series [4] is T4, hRev1 330-833 polymerase core (human, UniProt Q9UBZ9 330-833).
T4 sequence: T1 sequence with A29L
The series can be described thus: fluorescence polarization; 100 mM LiCl; Fluorescence polarization: 1 nM FAM-DNA, 100 mM KCl or LiCl; DNA annealed in 50 mM HEPES pH 7.5; full buffer as in cited ref 17, temperature not stated. Footprinting: 50 mM HEPES pH 7.5, 100 mM KCl, 10 uM protein, 30 uM ssDNA, room temperature. The settings on record: protein: recombinant; label: 5'-FAM.

Setting [5] is: parallel G4 (1:2:1 loops) in K+.

Substitutions are numbered along the chain they refer to.

Take AGCGTGCGTAGCGTGCGTTATGAGATGAT (ssDNA) [Non-G4 Myc control ss]: the Kd in series [1] came out at 660 ± 140 nM; in series [2] it was 740 ± 180 nM; in series [3], 1100 ± 130 nM; in series [4], 760 ± 290 nM.

Take AGGGTGGGTAGGGTGGGTTATGAGATGAT (structured_DNA) [Myc 14/23 ss G4]: the equilibrium dissociation constant (Kd) worked out at 77 ± 8 nM in series [1] (setting [5]), 180 ± 30 nM in series [2] (setting [5]) and 280 ± 20 nM in series [3] (setting [5]).
